B1: ZBTB22 (parent)
chain: FSSSSQEAFAASAVGSGERRGGGP
B2: PCDHGA10 (parent)
chain: FHELQMQVTASDSGDPPLSSNVSL

Variants of: B1
Test: protein stability index of a GFP-peptide fusion (GPS, HEK-293T) (PSI 1-6); higher = more stable
Details: c terminus: a fixed tail appended
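Note: lentivirally expressed fusions sorted by FACS into six bins by GFP to DsRed ratio, PSI derived from sequencing read proportions per bin multiplied by bin number.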

Variant | protein stability index
G23D | 4.21
G23S | 3.25
G23I | 2.74
G23W | 1.43
G23T | 3.27
G23R | 3.48
G23A | 3.57
G23E | 3.53
G23H | 3.39
G23Y | 2.87
G23M | 2.91
G23K | 4.06
G23V | 3.03
G23C | 3.46
S2Y | 4.54
S2Q | 2.55
S2D | 5.17
S2M | 4.01
S2W | 3.16
S2L | 3.13
S2N | 4.13
S2R | 4.52
S2E | 5.12
S2H | 1.77
S2F | 4.08

Variant | protein stability index
S2T | 2.53
S2G | 2.2
S2I | 2.26
G21P | 3.69
G21E | 3.68
G21Y | 3.22
G21K | 2.69
G21L | 3.05
G21T | 2.94
G21R | 3.35
G21S | 3.85
G21H | 3.03
G21W | 2.31
G21N | 3.45
G21M | 3.4
G21Q | 3.73
G21I | 3.48
R19D | 2.53
R19E | 4.24
R19L | 2.87
R19N | 3.49
R19I | 3.23
R19S | 3.86
R19Y | 3.32
R19P | 3.36

Variant | protein stability index
R19M | 3.35
R19W | 2.04
R19K | 3.41
R19Q | 3.47
R19H | 3.34
R19F | 3.15
P24I | 2.6
P24E | 3.8
P24Y | 2.86
P24K | 3.33
P24D | 3.89
P24V | 2.92
P24Q | 2.79
P24N | 3.29
P24F | 2.73
P24S | 3.41
P24T | 3.07
S12R | 2.61
S12D | 3.48
S12M | 2.63
S12I | 2.26
S12E | 3.58
S12G | 3.61
S12C | 2.54
S12F | 1.47

Variant | protein stability index
S12P | 3.36
S12A | 3.56
S12K | 3.68
S12H | 2.94
S12N | 3.26
S12Q | 3.71
S12Y | 1.85
Q6T | 2.77
Q6M | 2.85
Q6K | 1.31
Q6A | 2.74
Q6P | 3.03
Q6I | 2.5
Q6V | 2.6
Q6H | 2.81
Q6D | 4.44
Q6E | 4.4
Q6N | 3.32
Q6Y | 2.13
Q6C | 3.77
V14M | 3.25
V14W | 1.32
V14E | 3.85
V14Q | 3.52
V14A | 3.76

Variant | protein stability index
V14R | 3.65
V14K | 3.33
V14F | 2.99
V14T | 3.27
V14D | 4.5
V14I | 2.55
V14C | 3.36
V14N | 3.33
S3W | 2.86
S3G | 2.35
S3T | 4.04
S3A | 3.41
S3L | 4.05
S3R | 3.54
S3V | 4.41
S3K | 4.3
S3D | 4.36
S3C | 2.97
S3I | 4.37
S3F | 3.37
S3H | 4.13
S3P | 2.99
F9N | 4.71
F9M | 4.96
F9W | 1.67

Variant | protein stability index
F9G | 4.56
F9H | 4.66
F9C | 4.57
F9D | 5.44
F9V | 5.24
F9Y | 3.56
S16I | 3.06
S16P | 3.4
S16K | 3.34
S16M | 3.37
S16Y | 2.96
S16N | 3.38
S16W | 2.17
S16R | 3.35
S16G | 3.18
S16F | 2.4
S16H | 3.27
S16V | 3.52
S16E | 4.25
E18K | 3.31
E18C | 2.96
E18S | 2.28
E18P | 2.97
E18A | 3.48
E18Q | 3.24

Variant | protein stability index
E18I | 2.36
E18W | 2.92
E18Y | 2.69
E18H | 3.65
E18V | 2.49
E18G | 3.84
E18N | 2.55
S5V | 4.15
S5R | 3.7
S5N | 3.61
S5C | 2.79
S5F | 2.45
S5Q | 4.35
S5L | 3.66
S5H | 2.86
S5E | 4.15
S5D | 4.27
S5W | 2.87
S5T | 4.41
A8V | 2.11
A8K | 3.79
A8L | 2.25
A8G | 4.44
A8P | 3.94
A8E | 4.74

Variant | protein stability index
A8N | 4.21
A8Q | 4.09
A8I | 2.75
A8C | 2.47
G15P | 3.58
G15Q | 3.26
G15Y | 2.58
G15E | 3.85
G15R | 2.78
G15A | 3.09
G15C | 2.94
G15L | 3.89
G15V | 2.53
G15I | 3.3
G15W | 2.72
G15F | 2.02
G15T | 3.12
G15D | 4.16
G15N | 3.43
A11R | 3.74
A11C | 1.95
A11M | 3.4
A11N | 3.88
A11E | 3.85
A11G | 2.86

Variant | protein stability index
A11I | 2.32
A11F | 2.19
A11W | 1.86
A11D | 4.39
A11T | 3.32
A11Q | 3.44
A11L | 3.04
A11V | 2.13
E7Y | 1.54
E7L | 1.55
E7N | 2.84
E7D | 3.99
E7C | 1.64
E7A | 2.09
E7H | 2.31
E7K | 2.82
E7G | 3.12
E7I | 2.24
E7V | 1.96
S4R | 2.57
S4G | 1.93
S4M | 3.36
S4E | 4.28
S4Y | 3.74
S4L | 3.65

Variant | protein stability index
S4V | 3.87
S4N | 3.52
S4K | 2.65
S4Q | 3.09
S4I | 3.62
S4H | 3.21
S4F | 2.88
G17D | 3.88
G17C | 4.17
G17Y | 3.45
G17I | 2.74
G17M | 3.35
G17S | 3.39
G17W | 2.85
G17T | 3.08
G17V | 3.48
G17N | 3.28
G17H | 3.62
G17Q | 3.31
G17K | 2.63
G17P | 3.22
G17E | 3.52
G17F | 3.18
R20N | 3.36
R20K | 3.37

Variant | protein stability index
R20T | 3.63
R20V | 3.41
R20H | 2.96
R20A | 3.42
R20G | 3.14
R20E | 4.12
R20S | 3.68
R20D | 3.64
R20I | 3.17
R20P | 4.34
R20M | 3.3
A10E | 4.74
A10Y | 2.27
A10F | 2.41
A10T | 3.26
A10P | 3.89
A10M | 3.16
A10D | 5.25
A10H | 3.65
A10L | 3.26
A10V | 2.58
A10S | 3.22
A10Q | 4.09
A10G | 3.75
F1G | 5.5

Variant | protein stability index
F1L | 5.29
F1D | 5.7
F1S | 4.85
F1M | 5.13
F1H | 4.75
F1V | 5.17
F1K | 5.04
F1C | 3.94
F1A | 4.9
F1N | 5.02
F1E | 5.43
F1R | 5.67
F1I | 5.3
G22V | 3.33
G22F | 2.96
G22I | 3.3
G22A | 3.6
G22L | 3.65
G22K | 2.15
G22R | 3.25
G22C | 3.29
G22S | 3.33
G22W | 2.19
G22Y | 2.57
G22D | 3.11

Variant | protein stability index
G22Q | 3.83
G22P | 3.7
A13G | 3.01
A13T | 2.71
A13K | 3.36
A13C | 2.25
A13M | 2.79
A13R | 3.78
A13Y | 3.26
A13E | 3.93
A13F | 2.64
A13H | 3.17
A13D | 3.9
A13N | 2.57
A13I | 3.04
A13S | 3.31

Variants of: B2
Test: as above
Details: c terminus: a fixed tail appended

Variant | protein stability index
H2I | 1.88
D12R | 1.82
E3R | 1.85
E3Y | 2.26
G14R | 2.21
G14M | 2.09
P16Y | 1.59
L24A | 3.29
M6A | 2.84
L4T | 2.97
S11L | 2.27
S11G | 2.13
S11Q | 2.72
P17N | 2.12
Q5G | 2.73
F1H | 4.61
V22Y | 2.56
V22W | 2.05
